Biological target: T1, PaFAN1 (Pseudomonas aeruginosa, UniProt Q9I2N0 1-559)
T1 sequence: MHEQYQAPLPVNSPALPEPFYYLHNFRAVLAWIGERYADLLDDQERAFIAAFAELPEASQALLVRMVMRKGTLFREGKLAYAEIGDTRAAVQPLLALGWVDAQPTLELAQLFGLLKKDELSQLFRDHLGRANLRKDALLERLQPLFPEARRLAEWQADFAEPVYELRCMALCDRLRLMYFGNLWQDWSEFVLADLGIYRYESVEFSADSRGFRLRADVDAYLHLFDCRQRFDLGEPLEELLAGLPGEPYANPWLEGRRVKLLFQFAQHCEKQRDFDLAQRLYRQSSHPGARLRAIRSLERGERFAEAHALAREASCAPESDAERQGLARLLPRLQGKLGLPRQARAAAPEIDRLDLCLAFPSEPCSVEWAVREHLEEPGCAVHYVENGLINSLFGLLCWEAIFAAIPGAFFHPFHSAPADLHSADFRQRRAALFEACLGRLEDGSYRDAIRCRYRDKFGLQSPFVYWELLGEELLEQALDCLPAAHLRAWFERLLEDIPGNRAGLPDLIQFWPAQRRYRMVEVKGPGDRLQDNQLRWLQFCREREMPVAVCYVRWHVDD
Assay: crystal structure

B1: 5' flap DNA, 22-base template, 4-nt 5' flap (crystal I) (structured_DNA)
DNA 1: GAATGTGTGTCTCAATCCCAAC
DNA 2: GTTGGGATTG
DNA 3: AACCAGACACACATTC
B1: binds.
